PMC6213131, “Characterization of Properties and Transglycosylation Abilities of Recombinant α-Galactosidase from Cold-Adapted Marine Bacterium Pseudoalteromonas KMM 701 and Its C494N and D451A Mutants” (Marine Drugs, 2018)
Numbering of substitutions follows the chain as printed. Names and notes keep the numbering of the source.

B1: α-PsGal (Pseudoalteromonas sp. KMM 701) (protein)
chain: MADTKSFYRLDSVNSTVIFDCQSKTPALLYFGKRLSEQTTETMLTQLATRQEVKCAVVEEAPISLSPLLGEGFTGAPGLELVNDSIAWSVGPELQEVRQPSSATVEFVSVDKLRGIEVVHSITLDNNSDVLSAHTVLTNLGDSPLSVNFCAAPTFQLPDSVSKIVSFEGRWSNEFQRQSVDLVLGSFVRENRKGKTSHDVFPGLLVHNENAGEQHGECYGFHLGWSGNNKLRAELLAEGRRYVQMGELLLPGELTLAKGQTYQSPSIYGSFSSEGFSALSRNFHRFVKANLLSQAQREKARPVHYNTWEGIYFDHDVDTLKQLADKVAPLGIERFVLDDGWFKGRRGDNAGLGDWTVDYKIYPDGLSPVIDHVNSLGMEFGIWFEPEMVNPDSDLYRAHPDWVLGSENNEQLSFRNQLVLDLTRSEVVEYLYKAIDDILVEYPTIKYIKWDMNRDINHAGNFDGKPAVHQQTLALYRLIDRIKAAHPGLEIESCSSGGARVDYGVLAHTDRVWTSDSNDALDRLEIQRGCSFFFPSSVMGAHVGPRDCHITGRNVSIEMRAAVSMFGHMGIEMDPRELNDHEYNALKAAIALHKEHREFIHSADLYRLDSDDLSINFGLIDAQKTKALFAYNSVRETPRTAPNKLRFVGLDADAQYTLNLVWPVKFEEYRPSSIAAVNGQTFTGEALMQFGLQMPISFPQTSLIFELNKA
notes: mature ca. 80 kDa; E. coli Rosetta (DE3); GH36
B2: α-PsGal (Pseudoalteromonas sp. KMM 701; C494N) (protein)
chain: B1 chain with C494N
notes: as for B1

Substrate: O=[N+]([O-])c1ccc(O[C@H]2O[C@H](CO)[C@H](O)[C@H](O)[C@H]2O)cc1
Assay: purified protein
Type: biochemical, Pseudoalteromonas sp. KMM 701
Settings: sodium phosphate (0.05 M in table footnote, 0.1 M in methods), pH 7.0, 20 °C

Row | Protein | Km [µM] | Vmax [µM/min] | kcat [s⁻¹] | kcat/Km [M⁻¹ s⁻¹]
1 | B1 | 400 ± 30 | 320 | 324 ± 3.5 | 820000
2 | B2 | 300 ± 5 | 24 | – | –
